Source: patent US20200262877A1, “ION CHANNEL-BINDING PEPTIDES AND METHODS OF USE THEREOF” (priority 2017, published 2020)

Assays:
α3β4 = biological target: T1, α3β4 (Homo sapiens, UniProt P30926+P32297); assay: Ion channel panel (IonWorks Barracuda): α3β4; type: cell-based; conditions: 100% = no change, <100% = inhibition
T1 construct: host or cells: HEK293 or CHO
Experimental: (§1) This example describes a method for assaying ion channel activity in cells.
(§2) Peptides were screened in duplicate at final concentrations of 20 μM and 200 nM, as determined by amino acid analysis, and diluted into HEPES buffered physiological saline (HBPS). HEK293 or CHO cells from the American Type Culture Collection (ATCC) were transfected with the appropriate ion channel before use. HEK293 cells were grown in Dulbecco's Modified Eagle Medium/Nutrient Mixture F-12, and CHO cells were cultured in Ham's F-12 media. All cultures were supplemented with 10% fetal bovine serum, 100 U/ml penicillin G, 100 μg/ml streptomycin sulfate, and the appropriate selection antibiotics. Prior to use, cells were washed twice with Hank's Balanced Salt Solution, and treated with Accutase cell detachment solution (Sigma-Aldrich). Cells were then washed. Peptides and controls were incubated with cells for at least five minutes.
(§3) Percent inhibition was defined as: (1-(Ipeptide/Icontrol))×100%).
(§4) Percent values were calculated using the following formula: % activation=(IPeptide/Icontrol)×100%, where IPeptide is the current produced by co-application a peptide with agonist, and Icontrol refers to the current produced by stimulation in control. Control used for each ion channel is the reference compound matched to a particular channel, as illustrated in TABLE 10 below.

α4β2 = biological target: T2, α4β2 (Homo sapiens, UniProt P17787+P43681); assay: Ion channel panel (IonWorks Barracuda): α4β2; type: cell-based; conditions: 100% = no change, <100% = inhibition
T2 construct: host or cells: HEK293 or CHO
Experimental: as §1, §2, §3, §4

Kir2.1 = biological target: T3, Kir2.1 (Homo sapiens, UniProt P63252); assay: Ion channel panel (IonWorks Barracuda): Kir2.1; type: cell-based; conditions: 100% = no change, <100% = inhibition
T3 construct: host or cells: HEK293 or CHO
Experimental: as §1, §2, §3, §4

5HT3a = biological target: T4, 5HT3a (Homo sapiens, UniProt P46098); assay: Ion channel panel (IonWorks Barracuda): 5HT3a; type: cell-based
T4 construct: host or cells: HEK293 or CHO
T4 sequence (P46098 whole entry, looked up): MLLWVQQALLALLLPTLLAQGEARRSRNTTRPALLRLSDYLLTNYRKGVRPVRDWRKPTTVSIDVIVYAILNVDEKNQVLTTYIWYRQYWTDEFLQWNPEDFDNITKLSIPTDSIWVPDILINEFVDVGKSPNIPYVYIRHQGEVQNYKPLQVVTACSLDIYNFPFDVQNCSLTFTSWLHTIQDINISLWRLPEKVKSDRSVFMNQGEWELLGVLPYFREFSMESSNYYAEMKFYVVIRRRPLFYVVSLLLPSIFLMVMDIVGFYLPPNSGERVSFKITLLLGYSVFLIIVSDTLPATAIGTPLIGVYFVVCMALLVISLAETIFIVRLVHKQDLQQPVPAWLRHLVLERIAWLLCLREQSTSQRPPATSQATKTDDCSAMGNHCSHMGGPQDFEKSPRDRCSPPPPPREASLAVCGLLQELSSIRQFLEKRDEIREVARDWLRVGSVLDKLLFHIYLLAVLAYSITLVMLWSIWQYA
Experimental: as §1, §2, §3, §4

GABA = assay: Ion channel panel (IonWorks Barracuda): GABA; type: cell-based; conditions: 100% = no change, <100% = inhibition
Experimental: as §1, §2, §3, §4

Kv2.1 = biological target: T5, Kv2.1 (Homo sapiens, UniProt Q14721); assay: cell-based; conditions: 100% = no change, <100% = inhibition
T5 construct: host or cells: HEK293 or CHO
Experimental: as §1, §2, §3, §4

Cav2.1 = biological target: T6, Cav2.1 (Homo sapiens, UniProt O00555); assay: cell-based; conditions: 100% = no change, <100% = inhibition
T6 construct: host or cells: HEK293 or CHO
Experimental: as §1, §2, §3, §4

Cav2.2 = biological target: T7, Cav2.2 (Homo sapiens, UniProt Q00975); assay: cell-based; conditions: 100% = no change, <100% = inhibition
T7 construct: host or cells: HEK293 or CHO
Experimental: as §1, §2, §3, §4

Kv1.2 = biological target: T8, Kv1.2 (Homo sapiens, UniProt P16389); assay: cell-based; type: cell-based; conditions: 100% = no change, <100% = inhibition
T8 construct: host or cells: HEK293 or CHO
Experimental: as §1, §2, §3, §4

Kv1.3 = biological target: T9, Kv1.3 (Homo sapiens, UniProt P22001); assay: cell-based; type: cell-based; conditions: 100% = no change, <100% = inhibition
T9 construct: host or cells: HEK293 or CHO
Experimental: as §1, §2, §3, §4

Kv1.1 = biological target: T10, Kv1.1 (Homo sapiens, UniProt Q09470); assay: cell-based; type: cell-based; conditions: 100% = no change, <100% = inhibition
T10 construct: host or cells: HEK293 or CHO
Experimental: as §1, §2, §3, §4

Nav1.5 = Nav1.5 (Homo sapiens, UniProt Q14524); assay: in vitro; conditions: 100% = no change; for Activity of Nav1.5 with peptide, expressed as a percentage of the reference compound: peptide at 0.2 μM; for Activity of Nav1.5 with peptide (percentage of the reference compound): peptide at 20 μM
Experimental: as §1, §2, §3, §4

hERG = hERG (Homo sapiens, UniProt Q12809); assay: in vitro; conditions: 100% = no change, <100% = inhibition
Experimental: as §1, §2, §3, §4

NR2A = biological target: T11, NR2A (Homo sapiens, UniProt Q12879); assay: Ion channel panel (IonWorks Barracuda): NR2A; type: cell-based; conditions: 100% = no change, <100% = inhibition
T11 construct: host or cells: HEK293 or CHO
Experimental: as §1, §2, §3, §4

TRPV1 = biological target: T12, TRPV1 (Homo sapiens, UniProt Q8NER1); assay: Ion channel panel (IonWorks Barracuda): TRPV1; type: cell-based; conditions: 100% = no change, <100% = inhibition
T12 construct: host or cells: HEK293 or CHO
Experimental: as §1, §2, §3, §4

NR2B = biological target: T13, NR2B (Homo sapiens, UniProt Q13224); assay: Ion channel panel (IonWorks Barracuda): NR2B; type: cell-based; conditions: 100% = no change, <100% = inhibition
T13 construct: host or cells: HEK293 or CHO
Experimental: as §1, §2, §3, §4

Nav1.7 = biological target: T14, Nav1.7 (Homo sapiens, UniProt Q15858); assay: cell-based; type: cell-based; conditions: 100% = no change; for Activity of Nav1.7 with peptide, expressed as a percentage of the reference compound: peptide at 0.2 μM; for Activity of Nav1.7 with peptide (percentage of the reference compound): peptide at 20 μM
T14 construct: host or cells: HEK293 or CHO
Experimental: as §1
as §2, with “Peptides were screened in duplicate at final concentrations of 20 μM and 200 nM, as determined by amino acid analysis, and diluted into HEPES buffered physiological saline (HBPS).” left out
as §3, §4

TRPA1 = biological target: T15, TRPA1 (Homo sapiens, UniProt O75762); assay: Ion channel panel (IonWorks Barracuda): TRPA1; type: cell-based; conditions: 100% = no change, <100% = inhibition
T15 construct: host or cells: HEK293 or CHO
Experimental: as §1, §2, §3, §4

[1] = first of two Nav1.5 columns (probably TP1)
[2] = second of two Nav1.5 columns (probably TP2)
[3] = first of two Nav1.7 columns (probably TP1)
[4] = second of two Nav1.7 columns (probably TP2)

Sequence of Nav1.5 (Q14524 whole entry): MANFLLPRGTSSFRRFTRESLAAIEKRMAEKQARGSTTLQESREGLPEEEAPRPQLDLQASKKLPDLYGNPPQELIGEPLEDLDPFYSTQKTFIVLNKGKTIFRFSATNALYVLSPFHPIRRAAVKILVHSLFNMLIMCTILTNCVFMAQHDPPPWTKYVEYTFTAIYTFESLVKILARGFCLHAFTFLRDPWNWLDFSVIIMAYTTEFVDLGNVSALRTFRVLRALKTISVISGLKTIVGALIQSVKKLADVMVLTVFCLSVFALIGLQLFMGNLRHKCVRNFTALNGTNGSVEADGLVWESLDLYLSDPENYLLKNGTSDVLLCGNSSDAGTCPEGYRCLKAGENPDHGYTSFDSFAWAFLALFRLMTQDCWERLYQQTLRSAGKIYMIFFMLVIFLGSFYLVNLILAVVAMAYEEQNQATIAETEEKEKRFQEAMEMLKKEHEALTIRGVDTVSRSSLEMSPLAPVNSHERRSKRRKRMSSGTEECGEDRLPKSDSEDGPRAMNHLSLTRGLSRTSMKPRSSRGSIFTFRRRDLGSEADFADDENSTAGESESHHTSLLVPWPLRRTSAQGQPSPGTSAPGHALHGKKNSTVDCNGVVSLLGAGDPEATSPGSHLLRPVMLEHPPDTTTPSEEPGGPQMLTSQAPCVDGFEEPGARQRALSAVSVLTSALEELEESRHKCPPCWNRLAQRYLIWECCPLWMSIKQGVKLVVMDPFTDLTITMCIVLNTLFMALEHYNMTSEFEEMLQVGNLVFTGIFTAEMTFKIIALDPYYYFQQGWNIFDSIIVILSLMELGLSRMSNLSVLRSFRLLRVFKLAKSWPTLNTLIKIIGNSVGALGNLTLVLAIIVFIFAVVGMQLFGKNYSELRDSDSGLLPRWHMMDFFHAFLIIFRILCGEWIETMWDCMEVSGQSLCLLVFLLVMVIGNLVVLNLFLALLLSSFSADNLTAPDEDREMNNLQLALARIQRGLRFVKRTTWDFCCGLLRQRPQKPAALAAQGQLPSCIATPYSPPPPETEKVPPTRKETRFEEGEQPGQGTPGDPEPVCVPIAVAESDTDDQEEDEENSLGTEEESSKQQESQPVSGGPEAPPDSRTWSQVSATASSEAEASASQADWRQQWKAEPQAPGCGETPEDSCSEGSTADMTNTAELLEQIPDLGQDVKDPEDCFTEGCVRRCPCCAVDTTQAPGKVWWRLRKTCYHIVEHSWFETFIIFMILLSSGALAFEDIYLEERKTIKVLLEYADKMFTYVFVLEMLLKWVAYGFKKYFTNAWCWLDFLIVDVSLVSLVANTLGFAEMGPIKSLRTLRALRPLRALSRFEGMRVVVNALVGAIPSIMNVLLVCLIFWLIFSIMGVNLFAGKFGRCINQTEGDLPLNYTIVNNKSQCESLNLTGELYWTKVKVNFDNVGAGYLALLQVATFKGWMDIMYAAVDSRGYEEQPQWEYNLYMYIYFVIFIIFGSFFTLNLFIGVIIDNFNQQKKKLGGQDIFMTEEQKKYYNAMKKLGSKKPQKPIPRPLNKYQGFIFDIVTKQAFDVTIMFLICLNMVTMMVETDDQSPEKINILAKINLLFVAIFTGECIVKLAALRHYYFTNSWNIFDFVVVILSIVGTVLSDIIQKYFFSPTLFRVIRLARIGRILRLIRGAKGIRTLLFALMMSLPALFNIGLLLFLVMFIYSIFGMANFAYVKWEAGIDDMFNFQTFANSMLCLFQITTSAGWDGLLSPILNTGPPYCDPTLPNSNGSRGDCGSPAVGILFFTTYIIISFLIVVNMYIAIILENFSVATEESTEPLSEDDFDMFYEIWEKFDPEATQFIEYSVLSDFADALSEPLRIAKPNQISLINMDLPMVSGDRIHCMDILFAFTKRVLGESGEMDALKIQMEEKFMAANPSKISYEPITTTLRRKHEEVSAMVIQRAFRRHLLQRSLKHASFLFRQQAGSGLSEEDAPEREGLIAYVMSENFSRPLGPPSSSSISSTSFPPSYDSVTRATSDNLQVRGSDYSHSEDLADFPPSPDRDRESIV
T14 sequence (Q15858 whole entry): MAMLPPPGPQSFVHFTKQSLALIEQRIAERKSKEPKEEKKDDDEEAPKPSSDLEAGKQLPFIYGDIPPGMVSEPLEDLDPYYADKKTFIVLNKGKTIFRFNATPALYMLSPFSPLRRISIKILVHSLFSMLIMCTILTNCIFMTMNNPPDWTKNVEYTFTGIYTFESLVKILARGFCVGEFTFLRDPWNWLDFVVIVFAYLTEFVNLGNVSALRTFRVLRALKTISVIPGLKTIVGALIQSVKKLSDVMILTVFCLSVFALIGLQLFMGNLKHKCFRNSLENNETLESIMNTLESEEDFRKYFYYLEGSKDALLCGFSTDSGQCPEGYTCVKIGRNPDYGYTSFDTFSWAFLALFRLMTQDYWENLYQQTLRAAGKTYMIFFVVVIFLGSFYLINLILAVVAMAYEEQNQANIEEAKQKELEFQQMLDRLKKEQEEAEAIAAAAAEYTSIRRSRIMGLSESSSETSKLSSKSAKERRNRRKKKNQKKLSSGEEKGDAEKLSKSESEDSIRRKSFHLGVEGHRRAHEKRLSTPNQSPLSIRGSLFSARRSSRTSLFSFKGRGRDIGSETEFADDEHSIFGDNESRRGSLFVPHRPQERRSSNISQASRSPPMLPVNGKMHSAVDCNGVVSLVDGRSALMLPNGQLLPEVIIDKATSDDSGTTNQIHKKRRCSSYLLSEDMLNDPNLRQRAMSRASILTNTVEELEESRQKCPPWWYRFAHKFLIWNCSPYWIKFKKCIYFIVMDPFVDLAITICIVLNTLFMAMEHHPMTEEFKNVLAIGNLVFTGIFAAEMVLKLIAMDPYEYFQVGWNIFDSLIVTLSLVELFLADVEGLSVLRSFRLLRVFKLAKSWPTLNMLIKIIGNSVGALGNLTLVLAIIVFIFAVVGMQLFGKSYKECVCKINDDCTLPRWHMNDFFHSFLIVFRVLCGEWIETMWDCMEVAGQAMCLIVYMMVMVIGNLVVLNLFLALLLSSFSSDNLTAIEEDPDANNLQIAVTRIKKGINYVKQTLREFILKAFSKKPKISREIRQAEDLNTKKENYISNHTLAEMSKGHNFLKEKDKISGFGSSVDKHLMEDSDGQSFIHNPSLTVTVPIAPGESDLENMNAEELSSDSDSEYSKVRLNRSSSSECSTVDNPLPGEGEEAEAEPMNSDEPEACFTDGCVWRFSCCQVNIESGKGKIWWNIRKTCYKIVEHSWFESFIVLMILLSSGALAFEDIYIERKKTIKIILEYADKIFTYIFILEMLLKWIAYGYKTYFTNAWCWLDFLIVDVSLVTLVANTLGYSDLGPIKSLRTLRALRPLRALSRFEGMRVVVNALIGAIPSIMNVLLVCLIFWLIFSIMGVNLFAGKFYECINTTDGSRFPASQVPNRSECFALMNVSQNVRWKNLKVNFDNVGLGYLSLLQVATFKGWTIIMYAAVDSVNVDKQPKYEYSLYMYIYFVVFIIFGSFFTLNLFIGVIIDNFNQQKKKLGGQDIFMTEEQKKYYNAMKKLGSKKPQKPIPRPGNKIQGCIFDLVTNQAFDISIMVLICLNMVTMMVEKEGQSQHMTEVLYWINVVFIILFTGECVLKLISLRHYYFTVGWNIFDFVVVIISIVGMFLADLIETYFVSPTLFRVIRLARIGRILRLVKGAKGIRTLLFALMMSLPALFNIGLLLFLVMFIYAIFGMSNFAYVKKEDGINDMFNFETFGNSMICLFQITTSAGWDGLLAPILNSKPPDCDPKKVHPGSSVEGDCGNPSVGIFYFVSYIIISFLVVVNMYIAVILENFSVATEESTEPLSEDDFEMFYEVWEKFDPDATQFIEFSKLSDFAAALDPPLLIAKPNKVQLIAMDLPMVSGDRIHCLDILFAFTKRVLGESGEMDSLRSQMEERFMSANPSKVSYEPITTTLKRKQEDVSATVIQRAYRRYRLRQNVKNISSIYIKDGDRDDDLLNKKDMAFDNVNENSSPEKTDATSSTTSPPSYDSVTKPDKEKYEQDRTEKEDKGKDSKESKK
T10 sequence (Q09470 whole entry): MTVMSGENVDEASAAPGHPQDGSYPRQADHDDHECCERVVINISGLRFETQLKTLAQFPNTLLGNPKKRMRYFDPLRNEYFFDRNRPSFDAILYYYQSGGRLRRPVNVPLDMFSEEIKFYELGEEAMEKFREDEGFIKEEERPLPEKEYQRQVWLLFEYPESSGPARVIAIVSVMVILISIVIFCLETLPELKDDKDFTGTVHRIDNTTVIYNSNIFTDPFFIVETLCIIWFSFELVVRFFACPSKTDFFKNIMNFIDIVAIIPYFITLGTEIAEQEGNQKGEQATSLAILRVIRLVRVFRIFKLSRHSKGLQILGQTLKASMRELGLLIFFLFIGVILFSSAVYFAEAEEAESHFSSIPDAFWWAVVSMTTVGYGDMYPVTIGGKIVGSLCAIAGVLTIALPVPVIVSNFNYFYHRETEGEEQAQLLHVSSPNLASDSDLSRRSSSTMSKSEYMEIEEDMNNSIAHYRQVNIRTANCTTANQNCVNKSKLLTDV
T8 sequence (P16389 whole entry): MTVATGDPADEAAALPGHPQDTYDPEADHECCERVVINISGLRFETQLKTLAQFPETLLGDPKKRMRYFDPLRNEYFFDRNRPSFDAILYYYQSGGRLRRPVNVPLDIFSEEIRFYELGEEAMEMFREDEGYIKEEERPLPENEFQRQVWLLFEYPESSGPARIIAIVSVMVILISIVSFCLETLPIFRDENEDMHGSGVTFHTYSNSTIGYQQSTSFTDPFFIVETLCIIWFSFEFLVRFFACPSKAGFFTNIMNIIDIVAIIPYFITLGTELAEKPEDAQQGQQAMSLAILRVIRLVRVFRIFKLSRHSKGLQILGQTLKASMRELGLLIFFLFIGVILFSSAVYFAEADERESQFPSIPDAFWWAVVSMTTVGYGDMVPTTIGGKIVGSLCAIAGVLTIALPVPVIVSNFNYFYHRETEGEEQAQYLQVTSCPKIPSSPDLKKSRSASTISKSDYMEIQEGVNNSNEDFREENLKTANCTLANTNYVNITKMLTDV

Substance: 3 (GSSEKDCIKHLQRCRENKDCCSKKCSRRGTNPEKRCR) [compound 3]
- Activity of a3b4 with peptide, expressed as a percentage of the reference compound (α3β4; peptide at 0.2 μM): 99%
- Activity of a3b4 with peptide (percentage of the reference compound) (α3β4; peptide at 20 μM): 92%
- Activity of a4b2 with peptide, expressed as a percentage of the reference compound (α4β2; peptide at 0.2 μM): 93%
- Activity of a4b2 with peptide (percentage of the reference compound) (α4β2; peptide at 20 μM): 91%
- Activity of Kir2.1 with peptide, expressed as a percentage of the reference compound (Kir2.1; peptide at 0.2 μM): 107%
- Activity of Kir2.1 with peptide (percentage of the reference compound) (Kir2.1; peptide at 20 μM): 93%
- Activity of 5HT3a with peptide (percentage of the reference compound) (5HT3a): 98%
- Activity of 5HT3a with peptide, expressed as a percentage of the reference compound (5HT3a): 109%
- Activity of GABA with peptide, expressed as a percentage of the reference compound (GABA; peptide at 0.2 μM): 77%
- Activity of GABA with peptide (percentage of the reference compound) (GABA; peptide at 20 μM): 111%
- Activity of Kv2.1 with peptide, expressed as a percentage of the reference compound (Kv2.1; peptide at 0.2 μM): 80%
- Activity of Kv2.1 with peptide (percentage of the reference compound) (Kv2.1; peptide at 20 μM): 81%
- Activity of Cav2.1 with peptide, expressed as a percentage of the reference compound (Cav2.1; peptide at 0.2 μM): 102%
- Activity of Cav2.1 with peptide (percentage of the reference compound) (Cav2.1; peptide at 20 μM): 131%
- Activity of Cav2.2 with peptide, expressed as a percentage of the reference compound (Cav2.2; peptide at 0.2 μM): 103%
- Activity of Cav2.2 with peptide (percentage of the reference compound) (Cav2.2; peptide at 20 μM): 110%
- Activity of Kv1.2 with peptide, expressed as a percentage of the reference compound (Kv1.2; peptide at 0.2 μM): 88%
- Activity of Kv1.2 with peptide (percentage of the reference compound) (Kv1.2; peptide at 20 μM): 45%
- Activity of Kv1.3 with peptide, expressed as a percentage of the reference compound (Kv1.3; peptide at 0.2 μM): 92%
- Activity of Kv1.3 with peptide (percentage of the reference compound) (Kv1.3; peptide at 20 μM): 87%
- Activity of Kv1.1 with peptide, expressed as a percentage of the reference compound (Kv1.1; peptide at 0.2 μM): 99%
- Activity of Kv1.1 with peptide (percentage of the reference compound) (Kv1.1; peptide at 20 μM): 73%
- Activity of Nav1.5 with peptide, expressed as a percentage of the reference compound (Nav1.5; [1]): 113%
- Activity of Nav1.5 with peptide, expressed as a percentage of the reference compound (Nav1.5; [2]): 111%
- Activity of Nav1.5 with peptide (percentage of the reference compound) (Nav1.5; [1]): 114%
- Activity of Nav1.5 with peptide (percentage of the reference compound) (Nav1.5; [2]): 115%
- Activity of hERG with peptide, expressed as a percentage of the reference compound (hERG; peptide at 0.2 μM): 121%
- Activity of hERG with peptide (percentage of the reference compound) (hERG; peptide at 20 μM): 81%
- Activity of NR2A with peptide, expressed as a percentage of the reference compound (NR2A; peptide at 0.2 μM): 97%
- Activity of NR2A with peptide (percentage of the reference compound) (NR2A; peptide at 20 μM): 100%
- Activity of TRPV1 with peptide, expressed as a percentage of the reference compound (TRPV1; peptide at 0.2 μM): 107%
- Activity of TRPV1 with peptide (percentage of the reference compound) (TRPV1; peptide at 20 μM): 95%
- Activity of NR2B with peptide, expressed as a percentage of the reference compound (NR2B; peptide at 0.2 μM): 93%
- Activity of NR2B with peptide (percentage of the reference compound) (NR2B; peptide at 20 μM): 74%
- Activity of Nav1.7 with peptide, expressed as a percentage of the reference compound (Nav1.7; [3]): 107%
- Activity of Nav1.7 with peptide, expressed as a percentage of the reference compound (Nav1.7; [4]): 113%
- Activity of Nav1.7 with peptide (percentage of the reference compound) (Nav1.7; [3]): 90%
- Activity of Nav1.7 with peptide (percentage of the reference compound) (Nav1.7; [4]): 68%
- Activity of TRPA1 with peptide, expressed as a percentage of the reference compound (TRPA1; peptide at 0.2 μM): 105%
- Activity of TRPA1 with peptide (percentage of the reference compound) (TRPA1; peptide at 20 μM): 117%
